The target of this assay is IrmA secreted from E. coli MG1655 carrying a plasmid encoding irmA (strain MS5667) (Escherichia coli). As to the kind of experiment: native gel or EMSA. (In general: A gel shift assay detects complexes by their altered migration in electrophoresis.)

For “IrmA secreted from E. coli MG1655 carrying a plasmid encoding irmA (strain MS5667) (natural protein)”, the stoichiometry N (as a rule, the number of molecules, sites or subunits per partner or assembly) is 2.

For the origin of these results see PMC4807369.
